Six molecules from patent US20160008485A1 (Pfizer, published 2016) can be followed below.

As a reminder, the Kd is the equilibrium constant for the complex coming apart. Low values mean higher affinity, high ones lower affinity.

Assay [1] deals with T1, human FcRn (human, UniProt P55899 24-297; P61769 21-119, limits assumed, biotinylated through an engineered Avi-tag).
T1 construct: Immobilised on a streptavidin chip; not shown: engineered Avi-tag
Kind of assay: BIAcore SPR, steady state, pH 6.0, biotinylated human FcRn on SA chip.

The target in assay [2] is T1, human FcRn. Described as above. The source holds these as a separate data set.
From the text: Binding is detected by surface plasmon resonance (SPR) of laser light refracting from the surface. Human FcRn was specifically biotinylated through an engineered Avi-tag using the BirA reagent (Catalog #: BIRA500, Avidity, LLC, Aurora, Colo.) and immobilized onto a streptavidin (SA) sensor chip to enable uniform orientation of the FcRn protein on the sensor.
Assay [3] deals with T2, human 5T4 antigen on cells (MDAMB435/5T4 transfectants; MDA-MB-468) (human, UniProt Q13641 32-420).
T2 sequence (looked up): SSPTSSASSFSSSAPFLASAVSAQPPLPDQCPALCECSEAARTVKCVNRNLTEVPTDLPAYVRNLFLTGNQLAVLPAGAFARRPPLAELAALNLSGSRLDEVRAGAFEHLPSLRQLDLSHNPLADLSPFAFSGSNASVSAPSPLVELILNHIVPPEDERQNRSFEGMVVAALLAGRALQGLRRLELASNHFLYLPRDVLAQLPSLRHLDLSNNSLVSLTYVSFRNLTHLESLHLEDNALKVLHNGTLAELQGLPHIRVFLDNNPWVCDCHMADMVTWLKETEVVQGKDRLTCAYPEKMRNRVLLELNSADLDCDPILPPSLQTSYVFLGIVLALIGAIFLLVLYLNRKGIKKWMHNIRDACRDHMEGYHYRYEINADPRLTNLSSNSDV
Put plainly: cell-based or functional assay.

Assay [4] addresses T3, human truncated recombinant 5T4 protein (5T4-tm-_myc_his) (human, UniProt Q13641 32-355).
T3 construct: extracellular domain; Coated on the ELISA plate; construct cited to Boghaert et al. 2008; also called 5T4 antigen; not shown: Myc and histidine tags
T3 sequence (looked up): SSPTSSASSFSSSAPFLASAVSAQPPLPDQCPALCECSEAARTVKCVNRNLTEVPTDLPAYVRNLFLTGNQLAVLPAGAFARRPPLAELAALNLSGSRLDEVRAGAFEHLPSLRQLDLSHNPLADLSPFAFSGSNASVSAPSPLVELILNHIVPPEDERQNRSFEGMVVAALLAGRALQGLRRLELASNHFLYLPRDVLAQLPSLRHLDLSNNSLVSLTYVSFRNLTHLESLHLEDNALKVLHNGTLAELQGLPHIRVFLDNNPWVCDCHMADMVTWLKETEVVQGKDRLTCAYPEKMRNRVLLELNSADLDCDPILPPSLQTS
Put plainly: competition ELISA on plate-coated 5T4-tm-_myc_his; competitor: biotinylated wild type anti-5T4 antibody at 1.3 nM, detected with streptavidin-HRP, OD450. A general note: ELISA stands for enzyme-linked immunosorbent assay.

Where “and” joins values, the source holds several entries; their conditions need not be identical. Identical values can stand only once. Like-named read-outs stand apart in the source and are kept apart here.

T1 sequence (P55899 24-297 limits assumed, chain 1 of 2): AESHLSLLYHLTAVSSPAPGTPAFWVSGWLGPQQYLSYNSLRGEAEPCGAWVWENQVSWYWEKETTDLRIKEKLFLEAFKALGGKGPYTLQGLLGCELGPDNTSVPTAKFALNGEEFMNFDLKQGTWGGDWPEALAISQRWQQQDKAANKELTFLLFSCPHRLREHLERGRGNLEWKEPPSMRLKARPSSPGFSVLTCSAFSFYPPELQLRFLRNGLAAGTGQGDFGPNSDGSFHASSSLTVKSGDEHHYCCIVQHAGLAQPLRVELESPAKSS
T1 sequence (P61769 21-119 limits assumed, chain 2 of 2): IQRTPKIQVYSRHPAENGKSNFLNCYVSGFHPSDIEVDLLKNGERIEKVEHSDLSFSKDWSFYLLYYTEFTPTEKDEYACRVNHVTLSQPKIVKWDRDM

B1: parental anti-5T4 antibody (wild type human IgG1) (antibody)
heavy: not shown
light: DIQMTQSPSSLSASVGDRVTITCKASQSVSNDVAWYQQKPGKAPKLLIYFATNRYTGVPSRFSGSGYGTDFTLTISSLQPEDFATYYCQQDYSSPWTFGQGTKVEIKRTVAAPSVFIFPPSDEQLKSGTASVVCLLNNFYPREAKVQWKVDNALQSGNSQESVTEQDSKDSTYSLSSTLTLSKADYEKHKVYACEVTHQGLSSPVTKSFNRGEC
notes: Humanized, human IgG1/kappa; also called Parental anti-5T4 Ab; wt IgG1
In the case of B1, the results for the equilibrium dissociation constant (Kd) in assay [1] and in assay [2] were 412 nM and 493 nM, respectively.

B2: 5T4-L443C-mcMMAD (antibody)
heavy: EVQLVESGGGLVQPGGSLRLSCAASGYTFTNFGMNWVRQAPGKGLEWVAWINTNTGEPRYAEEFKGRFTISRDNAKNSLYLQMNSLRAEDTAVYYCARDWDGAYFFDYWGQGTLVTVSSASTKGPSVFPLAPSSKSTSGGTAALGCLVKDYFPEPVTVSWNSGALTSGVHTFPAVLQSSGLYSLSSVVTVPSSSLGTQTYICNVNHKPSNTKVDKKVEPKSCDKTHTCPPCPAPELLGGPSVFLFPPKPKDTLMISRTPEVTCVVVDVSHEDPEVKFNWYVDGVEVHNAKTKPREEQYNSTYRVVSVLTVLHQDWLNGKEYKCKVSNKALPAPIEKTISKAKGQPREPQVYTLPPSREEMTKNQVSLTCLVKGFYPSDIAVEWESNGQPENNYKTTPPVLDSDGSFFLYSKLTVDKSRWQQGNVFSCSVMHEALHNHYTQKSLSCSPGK
light: DIQMTQSPSSLSASVGDRVTITCKASQSVSNDVAWYQQKPGKAPKLLIYFATNRYTGVPSRFSGSGYGTDFTLTISSLQPEDFATYYCQQDYSSPWTFGQGTKVEIKRTVAAPSVFIFPPSDEQLKSGTASVVCLLNNFYPREAKVQWKVDNALQSGNSQESVTEQDSKDSTYSLSSTLTLSKADYEKHKVYACEVTHQGLSSPVTKSFNRGEC
modifications: mcMMAD on engineered Cys 443 (EU)
notes: Antibody-drug conjugate; also called 5T4-L443C-mcMMAD (1)
On to B2, for which, in assay [3], the “IC50, growth inhibition (MTS), MDA-MB-468 cells (5T4 expression 2+)” value (“IC50, growth inhibition (MTS)” for short) amounted to 20 µg/mL and the “IC-50, growth inhibition (MTS), MDAMB435/5T4 cells (5T4 expression 3+)” value (shortened to “IC-50, growth inhibition (MTS)”) stood at 120 ng ADC/ml. For the same molecule, in assay [2], the Kd was 697 nM and 518 nM.

B3: 5T4-E380C-mcMMAD (antibody, human IgG1, kappa)
heavy: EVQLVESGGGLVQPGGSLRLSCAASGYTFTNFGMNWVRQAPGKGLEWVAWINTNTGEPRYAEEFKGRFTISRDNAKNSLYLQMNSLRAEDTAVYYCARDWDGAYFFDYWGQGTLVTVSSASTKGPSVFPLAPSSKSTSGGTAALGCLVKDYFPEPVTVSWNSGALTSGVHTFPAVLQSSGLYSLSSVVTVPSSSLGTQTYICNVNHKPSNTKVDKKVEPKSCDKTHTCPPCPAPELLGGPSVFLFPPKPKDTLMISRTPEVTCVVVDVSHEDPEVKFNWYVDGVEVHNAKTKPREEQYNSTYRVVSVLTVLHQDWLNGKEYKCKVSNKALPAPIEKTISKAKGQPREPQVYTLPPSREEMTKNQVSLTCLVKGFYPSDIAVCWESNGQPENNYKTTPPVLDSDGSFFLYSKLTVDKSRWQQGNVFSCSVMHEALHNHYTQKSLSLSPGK
light: DIQMTQSPSSLSASVGDRVTITCKASQSVSNDVAWYQQKPGKAPKLLIYFATNRYTGVPSRFSGSGYGTDFTLTISSLQPEDFATYYCQQDYSSPWTFGQGTKVEIKRTVAAPSVFIFPPSDEQLKSGTASVVCLLNNFYPREAKVQWKVDNALQSGNSQESVTEQDSKDSTYSLSSTLTLSKADYEKHKVYACEVTHQGLSSPVTKSFNRGEC
modifications: mcMMAD on engineered Cys 380 (EU)
notes: Antibody-drug conjugate
Take B3: in assay [3], the “IC50, growth inhibition (MTS)” value was 8.1 µg/mL and the “IC-50, growth inhibition (MTS)” value stood at 170 ng ADC/ml. This molecule also came in with a Kd in assay [2] of 409 nM.

B4: 5T4-V422C (antibody, human IgG1, kappa)
heavy: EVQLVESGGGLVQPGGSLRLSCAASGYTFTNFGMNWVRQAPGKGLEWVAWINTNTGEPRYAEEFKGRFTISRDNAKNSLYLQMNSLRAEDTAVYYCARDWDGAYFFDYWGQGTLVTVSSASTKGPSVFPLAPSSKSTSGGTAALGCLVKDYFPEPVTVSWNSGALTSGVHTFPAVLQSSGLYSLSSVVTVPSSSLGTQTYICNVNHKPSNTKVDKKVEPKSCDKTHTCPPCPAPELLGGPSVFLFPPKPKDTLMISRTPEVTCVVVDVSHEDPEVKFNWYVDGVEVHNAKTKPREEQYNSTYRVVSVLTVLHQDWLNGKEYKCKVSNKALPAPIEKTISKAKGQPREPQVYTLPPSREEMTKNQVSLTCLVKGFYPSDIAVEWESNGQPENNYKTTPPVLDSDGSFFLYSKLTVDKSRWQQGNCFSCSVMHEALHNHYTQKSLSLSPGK
light: DIQMTQSPSSLSASVGDRVTITCKASQSVSNDVAWYQQKPGKAPKLLIYFATNRYTGVPSRFSGSGYGTDFTLTISSLQPEDFATYYCQQDYSSPWTFGQGTKVEIKRTVAAPSVFIFPPSDEQLKSGTASVVCLLNNFYPREAKVQWKVDNALQSGNSQESVTEQDSKDSTYSLSSTLTLSKADYEKHKVYACEVTHQGLSSPVTKSFNRGEC
As for B4, in assay [1], binding was characterised by a dissociation constant (Kd) of 443 nM. The “IC50 (read off the curve)” value in assay [4] was approximately 7 nM.

B5: 5T4-L398C-mcMMAD (antibody, human IgG1, kappa)
heavy: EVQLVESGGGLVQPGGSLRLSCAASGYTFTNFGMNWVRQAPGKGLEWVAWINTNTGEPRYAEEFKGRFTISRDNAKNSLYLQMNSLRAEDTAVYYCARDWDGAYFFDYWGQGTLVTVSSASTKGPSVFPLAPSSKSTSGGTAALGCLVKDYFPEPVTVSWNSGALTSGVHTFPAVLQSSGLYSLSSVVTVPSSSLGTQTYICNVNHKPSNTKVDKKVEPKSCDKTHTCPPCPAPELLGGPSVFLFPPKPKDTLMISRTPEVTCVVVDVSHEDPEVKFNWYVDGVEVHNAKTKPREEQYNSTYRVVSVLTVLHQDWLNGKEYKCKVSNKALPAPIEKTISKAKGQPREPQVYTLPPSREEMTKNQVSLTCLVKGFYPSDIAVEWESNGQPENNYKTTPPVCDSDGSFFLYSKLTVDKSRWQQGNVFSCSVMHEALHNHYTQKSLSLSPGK
light: DIQMTQSPSSLSASVGDRVTITCKASQSVSNDVAWYQQKPGKAPKLLIYFATNRYTGVPSRFSGSGYGTDFTLTISSLQPEDFATYYCQQDYSSPWTFGQGTKVEIKRTVAAPSVFIFPPSDEQLKSGTASVVCLLNNFYPREAKVQWKVDNALQSGNSQESVTEQDSKDSTYSLSSTLTLSKADYEKHKVYACEVTHQGLSSPVTKSFNRGEC
modifications: mcMMAD on engineered Cys 398 (EU)
notes: Antibody-drug conjugate
With B5, in assay [3], the “IC50, growth inhibition (MTS)” value worked out at 13 µg/mL and the “IC-50, growth inhibition (MTS)” value worked out at 160 ng ADC/ml. This molecule gave a Kd in assay [2] of 704 nM.

B6: 5T4-V422C-mcMMAD (antibody, human IgG1, kappa)
heavy: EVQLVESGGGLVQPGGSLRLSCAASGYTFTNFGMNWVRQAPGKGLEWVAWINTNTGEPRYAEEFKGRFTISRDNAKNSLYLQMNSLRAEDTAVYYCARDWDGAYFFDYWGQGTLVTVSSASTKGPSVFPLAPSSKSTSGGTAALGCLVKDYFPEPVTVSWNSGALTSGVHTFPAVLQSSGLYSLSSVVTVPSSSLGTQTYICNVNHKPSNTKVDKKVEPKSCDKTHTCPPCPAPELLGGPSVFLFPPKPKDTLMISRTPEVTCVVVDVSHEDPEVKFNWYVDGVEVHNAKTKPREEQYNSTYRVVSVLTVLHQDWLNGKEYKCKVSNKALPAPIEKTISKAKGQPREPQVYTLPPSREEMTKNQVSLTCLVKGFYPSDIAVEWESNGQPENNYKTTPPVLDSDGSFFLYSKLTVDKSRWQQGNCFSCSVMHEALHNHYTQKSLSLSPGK
light: DIQMTQSPSSLSASVGDRVTITCKASQSVSNDVAWYQQKPGKAPKLLIYFATNRYTGVPSRFSGSGYGTDFTLTISSLQPEDFATYYCQQDYSSPWTFGQGTKVEIKRTVAAPSVFIFPPSDEQLKSGTASVVCLLNNFYPREAKVQWKVDNALQSGNSQESVTEQDSKDSTYSLSSTLTLSKADYEKHKVYACEVTHQGLSSPVTKSFNRGEC
modifications: mcMMAD on engineered Cys 422 (EU)
notes: Antibody-drug conjugate
On to B6, for which, in assay [3], the “IC50, growth inhibition (MTS)” value was found to be 36 µg/mL and the “IC-50, growth inhibition (MTS)” value was 270 ng ADC/ml. Also, in assay [2], binding was put at a Kd of 402 nM.
